Results reported in PMC10821591, “Toxoplasma gondii mitochondrial association factor 1b interactome reveals novel binding partners including Ral GTPase accelerating protein α1” (The Journal of Biological Chemistry, 2023).

Molecular target: T1, T. gondii MAF1b (residues 173-443), co-expressed with RalGAPα1(GAP) in insect cells (Toxoplasma gondii, UniProt A0A140H546 173-443)
T1 construct: MAF1b of Toxoplasma gondii, structured C-terminal domain, residues 173-443; The results speak of nickel purification of MAF1b, the methods of streptactin purification and TEV cleavage of RalGAP (±MAF1b)
T1 sequence: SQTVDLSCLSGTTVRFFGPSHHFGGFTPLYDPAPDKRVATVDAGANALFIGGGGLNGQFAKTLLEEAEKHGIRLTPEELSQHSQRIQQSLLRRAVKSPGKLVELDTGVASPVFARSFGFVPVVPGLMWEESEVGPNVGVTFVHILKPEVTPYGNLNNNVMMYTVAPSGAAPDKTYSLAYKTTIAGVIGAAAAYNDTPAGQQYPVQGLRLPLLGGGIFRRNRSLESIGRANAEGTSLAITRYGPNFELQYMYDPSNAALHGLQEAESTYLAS
Test: SEC; RalGAPα1(GAP) co-expressed with MAF1b_WT in T. ni cells, co-purified by affinity chromatography, TEV cleavage, then Superdex 75 16/600 in 20 mM HEPES pH 7.5, 150 mM NaCl, 1 mM DTT; fractions on SDS-PAGE
Conditions: both partners purified

B1: GAP domain of human Ral GTPase Accelerating Protein α1 (residues 1807-1988) (domain or fragment)
chain: not shown
notes: Human RalGAPα1, putative GAP domain, amino acids T1807-P1988 of NP_055805.1; also called RalGAPα1(GAP); RalGAP; not shown: twin-strep-II, N-terminal, cleaved
- binding result: binds
